Eleven substances from article PMC10826351 can be followed below.

The first data set addresses T1, PbtAC (PbtA C-terminal domain) (Vibrio anguillarum RV22) (UniProt A0A289GIJ0).
T1 sequence: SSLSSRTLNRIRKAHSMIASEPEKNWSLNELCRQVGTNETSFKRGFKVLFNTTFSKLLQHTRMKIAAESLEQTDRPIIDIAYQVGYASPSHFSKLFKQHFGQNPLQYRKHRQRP
The experiment in a line: EMSA. The conditions noted are these: 1 mM Tris pH 7.5, 155 mM KCl, 0.1 mM DTT, 5% glycerol, 5 mM MgCl2, 1 mM EDTA, 0.3 mg/mL BSA, 30 min at 20 C.
Take “TAAAACAAAACCAGAAAATAAAATAAAAATCAACAAAATTAAATGCTTAATTTTAATTAAGTTC (double strand) [Probe 4 (frpA, 6xAAAAT low complexity region)]”: the binding result is recorded as “no binding”.

“AAAAATAGACGACCCGATCTATTCAAGCTTGTTTAAAATAACAATCATAAACGTCGATTCACGCTCTTTTTATGCCTTATTCAGTTAGCAGGTAAAAGACAGAATCGGCACTATAAGTTCAATATGGATACCACAG (double strand) [Probe 5 (frpA)]”: the binding entry is reported as “binds”.

Staying with this data set, now noted: 1 mM Tris pH 7.5, 155 mM KCl, 0.1 mM DTT, 5% glycerol, 5 mM MgCl2, 1 mM EDTA, 0.3 mg/mL BSA, 30 min at 20 C, scale: free probe band ratio to no-protein control.
As to “TATTGAGCAATTGAGGATTAATGAATGTGGCCACTAATATACTAATACCGATTGCTGAGTGGTGGGCTAGTTACGACTAAACGCGACGATTTTATACCTAATTGCGTTAGCGATGGCATGCATATTCAGCAAAAATAGCCTCCATTTATG (double strand) [Probe 12 (frpC)]”, the binding signal turned out to be 0.7.

The subject of another data set is PbtAC (PbtA C-terminal domain) (Vibrio anguillarum RV22). The experiment in a line: EMSA. The following applies: 1 mM Tris pH 7.5, 155 mM KCl, 0.1 mM DTT, 5% glycerol, 5 mM MgCl2, 1 mM EDTA, 0.3 mg/mL BSA, 30 min at 20 C, scale: free probe band ratio to no-protein control.
As to hcp2 promoter (P6), the binding signal amounted to 0.28.

Regarding LPS wzi(ab) promoter (P4), the binding signal is 0.26.

Turning to vgrG promoter (P2?), the binding signal came to 0.09.

Turning to vipA promoter (P1?), the binding signal was determined as 0.2.

PfrpA (Probe 1): the binding signal was 0.49.

For the substance vanT promoter (P3), the binding signal is 0.81.

As for PfrpC (Probe 9), the binding signal came to 0.41.

As to hcp1 promoter (P5), the binding signal is 0.74.
